The data set “negative-staining EM” concerns the molecule itself. The data set can be described thus: negative-staining EM.
The data set “cryo-EM structure” concerns the molecule itself. Briefly: cryo-EM structure.

In general, stoichiometry N refers to a count of units in the complex or per binding partner.

B1: β-arrestin 2 (βarr2), wild-type, full-length (natural protein, UniProt P32120 1-420, looked up)
chain: MGEKPGTRVFKKSSPNCKLTVYLGKRDFVDHLDKVDPVDGVVLVDPDYLKDRKVFVTLTCAFRYGREDLDVLGLSFRKDLFIANYQAFPPTPNPPRPPTRLQERLLRKLGQHAHPFFFTIPQNLPCSVTLQPGPEDTGKACGVDFEIRAFCAKSLEEKSHKRNSVRLVIRKVQFAPEKPGPQPSAETTRHFLMSDRSLHLEASLDKELYYHGEPLNVNVHVTNNSTKTVKKIKVSVRQYADICLFSTAQYKCPVAQVEQDDQVSPSSTFCKVYTITPLLSNNREKRGLALDGKLKHEDTNLASSTIVKEGANKEVLGILVSYRVKVKLVVSRGGDVSVELPFVLMHPKPHDHIALPRPQSAATHPPTLLPSAVPETDAPVDTNLIEFETNYATDDDIVFEDFARLRLKGLKDEDYDDQFC
B1: the “stoichiometry N” value in the data set “negative-staining EM” was found to be 3; in “cryo-EM structure”, 2.

Source of the values: article PMC7615931 (Science (New York, N.Y.), 2024).
